One block for each binder: values may come before it.
What was measured:
Experiment in all cases: holdup assay
Design in all cases: key: below the threshold = too weak to quantify, mostly under pKd 3.1 to 4
[1] = biological target: T1, DFNB31_3, Q9P202
T1 sequence (Q9P202 811-907, limits assumed, looked up): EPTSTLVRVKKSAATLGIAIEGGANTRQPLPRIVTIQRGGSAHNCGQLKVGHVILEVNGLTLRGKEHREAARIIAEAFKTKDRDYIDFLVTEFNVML

[2] = biological target: T2, DLG3_2, Q92796
T2 sequence (Q92796 221-321, limits assumed, looked up): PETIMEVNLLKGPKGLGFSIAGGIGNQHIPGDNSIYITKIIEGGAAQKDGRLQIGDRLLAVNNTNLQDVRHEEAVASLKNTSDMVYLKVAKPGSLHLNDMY

[3] = biological target: DLG4_1, P78352
[4] = biological target: DLG4_2, P78352
[5] = biological target: FRMPD3, Q5JV73
[6] = biological target: GORASP1, Q9BQQ3
[7] = biological target: GORASP2, Q9H8Y8
[8] = biological target: Inadl_8, Q8NI35
[9] = biological target: T3, LIN7C, Q9NUP9
T3 sequence (Q9NUP9 88-185, limits assumed, looked up): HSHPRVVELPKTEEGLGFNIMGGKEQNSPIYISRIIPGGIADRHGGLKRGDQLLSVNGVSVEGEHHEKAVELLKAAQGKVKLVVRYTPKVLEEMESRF

[10] = biological target: LNX1_1, Q8TBB1
[11] = biological target: T4, LNX2_2, Q8N448
T4 sequence (Q8N448 334-432, limits assumed, looked up): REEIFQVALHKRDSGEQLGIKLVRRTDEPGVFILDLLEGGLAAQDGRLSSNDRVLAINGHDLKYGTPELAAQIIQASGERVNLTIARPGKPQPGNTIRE

[12] = biological target: MAGI1_2, Q96QZ7
[13] = biological target: MAGI2_3, Q86UL8
[14] = biological target: MAST1, Q9Y2H9
[15] = biological target: T5, MPP2, Q14168
T5 sequence (Q14168 180-250, limits assumed, looked up): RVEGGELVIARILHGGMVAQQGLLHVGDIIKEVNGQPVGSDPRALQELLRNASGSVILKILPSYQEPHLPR

[16] = biological target: T6, NHERF3_1, Q5T2W1
T6 sequence (Q5T2W1 4-100, limits assumed, looked up): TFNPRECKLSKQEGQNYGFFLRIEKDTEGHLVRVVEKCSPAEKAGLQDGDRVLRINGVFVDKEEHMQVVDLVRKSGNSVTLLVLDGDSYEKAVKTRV

[17] = biological target: T7, NHERF3_4, Q5T2W1
T7 sequence (Q5T2W1 373-468, limits assumed, looked up): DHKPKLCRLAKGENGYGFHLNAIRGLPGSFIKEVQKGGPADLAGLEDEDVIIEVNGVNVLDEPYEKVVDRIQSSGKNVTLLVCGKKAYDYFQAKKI

[18] = biological target: NHERF4_2, Q86UT5
[19] = biological target: PDZRN4_1, Q6ZMN7
[20] = biological target: PTPN3, P26045
[21] = biological target: T8, RHPN1, Q8TCX5
T8 sequence (Q8TCX5 508-602, limits assumed, looked up): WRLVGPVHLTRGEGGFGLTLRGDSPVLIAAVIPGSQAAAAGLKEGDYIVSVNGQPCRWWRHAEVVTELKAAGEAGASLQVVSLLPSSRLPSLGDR

[22] = biological target: SCRIB_1, Q14160
[23] = biological target: T9, SHANK1, Q9Y566
T9 sequence (Q9Y566 658-767, limits assumed, looked up): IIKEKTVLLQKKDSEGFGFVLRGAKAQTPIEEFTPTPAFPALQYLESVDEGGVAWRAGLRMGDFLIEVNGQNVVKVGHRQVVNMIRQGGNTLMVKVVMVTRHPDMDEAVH

[24] = biological target: T10, SNTG1, Q9NSN8
T10 sequence (Q9NSN8 52-150, limits assumed, looked up): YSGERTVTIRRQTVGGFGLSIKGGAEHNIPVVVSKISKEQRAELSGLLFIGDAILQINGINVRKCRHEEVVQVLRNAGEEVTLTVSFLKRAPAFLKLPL

[25] = biological target: T11, SYNJ2BP, P57105
T11 sequence (P57105 8-110, limits assumed, looked up): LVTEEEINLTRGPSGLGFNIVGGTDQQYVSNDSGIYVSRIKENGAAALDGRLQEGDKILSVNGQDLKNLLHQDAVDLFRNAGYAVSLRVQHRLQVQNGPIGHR

[26] = biological target: TJP1_2, Q07157
[27] = biological target: NHERF2_2, Q15599
[28] = plain residues with an end cap or a label only (N-terminal biotin on a linker: ttds)
[29] = plain residues with an end cap or a label only (N-terminal biotin on a linker: ahx)

SCRIB_1, Q14160, sequence (Q14160 718-814): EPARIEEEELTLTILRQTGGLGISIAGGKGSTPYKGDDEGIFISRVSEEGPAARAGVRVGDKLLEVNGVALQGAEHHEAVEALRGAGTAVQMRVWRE
NHERF4_2, Q86UT5, sequence (Q86UT5 220-308): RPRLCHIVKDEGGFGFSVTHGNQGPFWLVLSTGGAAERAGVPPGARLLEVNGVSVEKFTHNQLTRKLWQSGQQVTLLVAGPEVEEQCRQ
NHERF2_2, Q15599, sequence (Q15599 142-238): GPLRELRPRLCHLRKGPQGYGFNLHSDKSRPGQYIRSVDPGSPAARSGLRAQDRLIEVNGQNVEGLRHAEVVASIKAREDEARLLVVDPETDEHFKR
PDZRN4_1, Q6ZMN7, sequence (Q6ZMN7 213-318): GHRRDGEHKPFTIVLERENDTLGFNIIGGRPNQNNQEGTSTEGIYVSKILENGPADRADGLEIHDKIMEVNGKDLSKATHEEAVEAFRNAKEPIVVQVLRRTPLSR
DLG4_2, P78352, sequence (P78352 155-259): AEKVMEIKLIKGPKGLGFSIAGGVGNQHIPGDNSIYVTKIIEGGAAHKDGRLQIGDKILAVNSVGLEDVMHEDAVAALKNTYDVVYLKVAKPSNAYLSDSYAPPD
LNX1_1, Q8TBB1, sequence (Q8TBB1 261-371): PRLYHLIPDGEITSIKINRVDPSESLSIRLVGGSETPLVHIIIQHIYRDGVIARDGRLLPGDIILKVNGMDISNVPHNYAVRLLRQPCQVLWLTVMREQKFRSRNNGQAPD
FRMPD3, Q5JV73, sequence (Q5JV73 12-100): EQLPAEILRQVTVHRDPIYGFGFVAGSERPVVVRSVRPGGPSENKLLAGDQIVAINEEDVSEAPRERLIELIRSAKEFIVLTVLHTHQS
PTPN3, P26045, sequence (P26045 505-587): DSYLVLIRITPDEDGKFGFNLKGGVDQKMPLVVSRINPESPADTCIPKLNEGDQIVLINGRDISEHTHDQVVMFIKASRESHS
MAGI1_2, Q96QZ7, sequence (Q96QZ7 456-580): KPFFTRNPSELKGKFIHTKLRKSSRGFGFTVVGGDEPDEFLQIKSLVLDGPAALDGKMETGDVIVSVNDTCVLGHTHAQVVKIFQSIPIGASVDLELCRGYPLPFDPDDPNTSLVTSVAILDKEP
DLG4_1, P78352, sequence (P78352 62-152): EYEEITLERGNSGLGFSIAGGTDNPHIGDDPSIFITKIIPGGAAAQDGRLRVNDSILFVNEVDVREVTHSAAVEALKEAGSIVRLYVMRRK
MAST1, Q9Y2H9, sequence (Q9Y2H9 962-1065): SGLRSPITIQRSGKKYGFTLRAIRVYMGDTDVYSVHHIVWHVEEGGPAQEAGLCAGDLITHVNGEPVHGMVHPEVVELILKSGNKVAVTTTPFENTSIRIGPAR
Inadl_8, Q8NI35, sequence (Q8NI35 1425-1530): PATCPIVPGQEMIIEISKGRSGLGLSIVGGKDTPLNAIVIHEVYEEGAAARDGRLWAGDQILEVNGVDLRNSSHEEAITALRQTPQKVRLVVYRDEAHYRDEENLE
TJP1_2, Q07157, sequence (Q07157 181-274): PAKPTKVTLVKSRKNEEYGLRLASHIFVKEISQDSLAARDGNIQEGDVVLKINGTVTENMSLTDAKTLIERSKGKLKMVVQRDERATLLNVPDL
MAGI2_3, Q86UL8, sequence (Q86UL8 600-682): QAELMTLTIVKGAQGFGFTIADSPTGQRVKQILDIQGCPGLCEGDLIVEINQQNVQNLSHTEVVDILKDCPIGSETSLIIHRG
GORASP1, Q9BQQ3, sequence (Q9BQQ3 1-208): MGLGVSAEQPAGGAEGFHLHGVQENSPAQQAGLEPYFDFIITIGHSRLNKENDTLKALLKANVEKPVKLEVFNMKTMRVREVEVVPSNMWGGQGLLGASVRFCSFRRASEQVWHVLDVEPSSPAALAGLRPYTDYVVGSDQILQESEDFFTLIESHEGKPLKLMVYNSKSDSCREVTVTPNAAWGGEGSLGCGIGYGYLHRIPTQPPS

Binder: TEEEVQDTRL [CFTR, P13569]
pKd [1, 28]: below the threshold
pKd [2, 28]: below the threshold
pKd [3, 28]: below the threshold
pKd [4, 28]: below the threshold
pKd [5, 28]: below the threshold
pKd [6, 28]: below the threshold
pKd [7, 28]: below the threshold
pKd [8, 28]: below the threshold
pKd [9, 28]: below the threshold
pKd [10, 28]: below the threshold
pKd [11, 28]: below the threshold
pKd [12, 28]: below the threshold
pKd [13, 28]: below the threshold
pKd [14, 28]: 4.77
pKd [15, 28]: below the threshold
pKd [16, 28]: 4.78
pKd [17, 28]: 4.08
pKd [18, 28]: below the threshold
pKd [19, 28]: 3.99
pKd [20, 28]: 4.21
pKd [21, 28]: 4.12
pKd [22, 28]: 5.42
pKd [23, 28]: 5.07
pKd [24, 28]: below the threshold
pKd [25, 28]: below the threshold
pKd [26, 28]: below the threshold

Binder: CLDTSRETDL [KCNA5, P22460]
pKd [1, 28]: below the threshold
pKd [2, 28]: 4.35
pKd [3, 28]: 3.84
pKd [4, 28]: 4.43
pKd [5, 28]: below the threshold
pKd [6, 28]: below the threshold
pKd [7, 28]: 3.58
pKd [8, 28]: below the threshold
pKd [9, 28]: 3.74
pKd [10, 28]: 3.91
pKd [11, 28]: below the threshold
pKd [12, 28]: below the threshold
pKd [13, 28]: below the threshold
pKd [14, 28]: 4.91
pKd [15, 28]: below the threshold
pKd [27, 28]: 4.49
pKd [16, 28]: 4.43
pKd [17, 28]: below the threshold
pKd [18, 28]: below the threshold
pKd [19, 28]: 3.98
pKd [20, 28]: 4.92
pKd [21, 28]: 4.46
pKd [22, 28]: 4.76
pKd [23, 28]: 3.5
pKd [24, 28]: 4.6
pKd [25, 28]: 4.2
pKd [26, 28]: below the threshold

Binder: LCKSHAFSHV [PDLIM7, Q9NR12;Q9NR12-1]
pKd [1, 29]: below the threshold
pKd [2, 29]: below the threshold
pKd [3, 29]: below the threshold
pKd [4, 29]: 3.49
pKd [5, 29]: below the threshold
pKd [6, 29]: below the threshold
pKd [7, 29]: below the threshold
pKd [8, 29]: 4.1
pKd [9, 29]: below the threshold
pKd [11, 29]: below the threshold
pKd [13, 29]: below the threshold
pKd [15, 29]: below the threshold
pKd [27, 29]: below the threshold
pKd [16, 29]: below the threshold
pKd [17, 29]: below the threshold
pKd [18, 29]: below the threshold
pKd [19, 29]: below the threshold
pKd [20, 29]: below the threshold
pKd [21, 29]: 4.38
pKd [22, 29]: below the threshold
pKd [23, 29]: below the threshold
pKd [24, 29]: below the threshold
pKd [26, 29]: below the threshold

The remaining lines, values ahead:

pKd [1, 29]: below the threshold
pKd [2, 29]: 3.87
pKd [3, 29]: 3.59
pKd [4, 29]: 3.95
pKd [5, 29]: below the threshold
pKd [6, 29]: below the threshold
pKd [7, 29]: below the threshold
pKd [8, 29]: 3.86
pKd [9, 29]: below the threshold
pKd [10, 29]: below the threshold
pKd [11, 29]: below the threshold
pKd [12, 29]: below the threshold
pKd [13, 29]: 4.23
pKd [14, 29]: 4.22
pKd [15, 29]: below the threshold
pKd [27, 29]: 3.68
pKd [16, 29]: below the threshold
pKd [17, 29]: below the threshold
pKd [18, 29]: below the threshold
pKd [19, 29]: below the threshold
pKd [20, 29]: 4.39
pKd [21, 29]: 4.23
pKd [22, 29]: below the threshold
pKd [23, 29]: 4.28
pKd [24, 29]: 4.29
pKd [25, 29]: 3.49
pKd [26, 29]: below the threshold
Binder: EDEDEQVSAV [RAPGEF2, Q9Y4G8]

pKd [1, 29]: below the threshold
pKd [2, 29]: below the threshold
pKd [3, 29]: below the threshold
pKd [4, 29]: below the threshold
pKd [5, 29]: 3.5
pKd [6, 29]: 3.8
pKd [7, 29]: 4.33
pKd [8, 29]: below the threshold
pKd [9, 29]: below the threshold
pKd [10, 29]: below the threshold
pKd [11, 29]: 4.16
pKd [12, 29]: below the threshold
pKd [13, 29]: below the threshold
pKd [14, 29]: below the threshold
pKd [15, 29]: 3.69
pKd [27, 29]: below the threshold
pKd [16, 29]: 3.84
pKd [17, 29]: below the threshold
pKd [18, 29]: below the threshold
pKd [19, 29]: below the threshold
pKd [20, 29]: below the threshold
pKd [21, 29]: below the threshold
pKd [22, 29]: below the threshold
pKd [23, 29]: below the threshold
pKd [24, 29]: below the threshold
pKd [25, 29]: below the threshold
pKd [26, 29]: below the threshold
Binder: KKNKDKEYYV [NRXN1, Q9ULB1]
